These results are taken from PMC3875630 (ACS chemical biology, 2013).

As a reminder, the stoichiometry N is the number of molecules, sites or subunits per partner or assembly.

Where two headings read alike, the source gives them in different places.

Data set [1] concerns the molecule itself. Description: crystal structure.
Data set [2] deals with the molecule itself. Description: crystal structure. The source holds these as a separate data set.

B1: Selenomethionyl CalS11 (TDP-rhamnose 3'-O-methyltransferase), cell-free synthesized (enzyme, Micromonospora echinospora)
chain: DSGDGQDLRAFVHDSPEETETTQRLTKLLTNSPIPTEELVNNLPLFLRRHQMTDLLSMDALYRQVLDVPGVIMEFGVRFGRHLGTFAALRGVYEPYNPLRRIVGFDTFTGFPDVNDVDRVGPTAYQGRFAVPGGYPAYLKEVLDAHECSDFFGHVTQRSVLVEGDVRETVPRYLAENPQTVIALAYFDLDLYEPTKAVLEAIRPYLTKGSIVAFDELDNPKWPGENIAMRKVLGLDHAPLRLLPGRPAPAYLRWGD
modifications: selenomethionine in place of methionine
Take B1: in data set [1], the “stoichiometry N” value stood at 10.

B2: Native CalS11 (TDP-rhamnose 3'-O-methyltransferase), from E. coli (enzyme, Micromonospora echinospora)
chain: MDSGDGQDLRAFVHDSPEETETTQRLTKLLTNSPIPTEELVNNLPLFLRRHQMTDLLSMDALYRQVLDVPGVIMEFGVRFGRHLGTFAALRGVYEPYNPLRRIVGFDTFTGFPDVNDVDRVGPTAYQGRFAVPGGYPAYLKEVLDAHECSDFFGHVTQRSVLVEGDVRETVPRYLAENPQTVIALAYFDLDLYEPTKAVLEAIRPYLTKGSIVAFDELDNPKWPGENIAMRKVLGLDHAPLRLLPGRPAPAYLRWGD
As to B2, the “stoichiometry N” value in data set [2] amounted to 10.
